{
  "source": "patent US8343490B2",
  "about": "“Monoclonal antibody SC104 and derivative thereof specifically binding to a sialyltetraosyl carbohydrate as a potential anti-tumor therapeutic agent” (Cephalon Australia Pty Ltd, priority 2004, dated 2013)",
  "key": {"[1]": {"tested_on": "colorectal tumour sections", "assay": "Immunoperoxidase staining of frozen colorectal tumour sections (screening)", "format": "binding", "parameters": "key: −: negative; +: minimal; 2+: strong; 3+: very strong", "method": "ELISA. Antibody responses in the serum of immunised mice were assayed by titration using a standard non-competitive ELISA procedure. 96-well tissue culture plates were coated with C170 cells at a cell density of 5×10^5 cells/ml (100 μl/well) in 10% foetal bovine serum in RPMI 1640. The plates were incubated overnight at 37° C., 5% CO2, 95% air. The cells were then washed twice in phosphate buffered saline (pH7.3, PBS) prior to being fixed with 0.5% glutaraldehyde in PBS (10 min, 25° C., 100 μl/well). Remaining non-specific binding sites were blocked by incubation for 1 hr with 1% bovine serum albumin (fraction V from Sigma Chemicals Ltd.) in PBS. The cells were washed three times with a washing solution consisting of 0.05% Tween 20 in phosphate buffered saline before assaying post-boost serum for binding to C170 cells using a non-competitive sandwich ELISA. The pre-immunisation serum was used as a negative control. • Immunohistochemistry. Binding of hybridoma supernatants to tumour tissues was determined by indirect immunoperoxidase staining of frozen colorectal tumour sections. […] The bound antibody was detected with rabbit anti-mouse Ig conjugated to peroxidase (Dako Ltd., Bucks., UK) and following extensive washing the slides were stained with 0.05% diaminobenzidine and 0.01% H2O2 in 0.05M Tris-HCl, pH7.6 and counterstained with haematoxylin. […]"}, "[2]": {"tested_on": "freshly disaggregated colorectal tumour cells", "assay": "Primary tumour binding, flow cytometry", "method": "• Primary tumour binding. Tumour specimens were obtained at the time of colorectal cancer resection. Specimens were finely minced and disaggregated with 0.05% collagenase (Type IV, Boehringer Mannheim, Lewes, UK) for 20 min at 37° C. The tumour cell suspension was removed and washed 3 times in Hanks balanced salt solution (Gibco BRL, Paisley, UK). Fresh collagenase was added to the remaining tissue and it was reincubated for a further 20 min. This procedure was repeated twice before combining cells from all dissociations and resuspending them in Dulbecco's medium containing 20% fetal calf serum (Gibco). Cells were incubated for 1 hr at 4° C. with SC104 mab (1 μg). […] Normal mouse immunoglobulin was used as a negative control and this fluorescence was subtracted from the fluorescence obtained with SC104. […] Results are expressed as mean linear fluorescence (MLF). […] The percentage of epithelial cells is measured by staining of cytokeratin mab Cam 5.2. was only 22±13% (range 10-60). However, following forward angle light scatter gating to selectively analyse cells in the malignant cell size range 79±4% (range 69-86) of the cells analysed were epithelial. […] The percentage of leukocytes as measured by staining with the anti-CD45 mab F-10-89 in the total nucleate population was 74±16 (range 40-90). […]"}, "CEA": {"biological_target": "T1, CEA (Homo sapiens, UniProt P06731)", "T1 construct": "from tissue", "T1 sequence (P06731 35-676)": "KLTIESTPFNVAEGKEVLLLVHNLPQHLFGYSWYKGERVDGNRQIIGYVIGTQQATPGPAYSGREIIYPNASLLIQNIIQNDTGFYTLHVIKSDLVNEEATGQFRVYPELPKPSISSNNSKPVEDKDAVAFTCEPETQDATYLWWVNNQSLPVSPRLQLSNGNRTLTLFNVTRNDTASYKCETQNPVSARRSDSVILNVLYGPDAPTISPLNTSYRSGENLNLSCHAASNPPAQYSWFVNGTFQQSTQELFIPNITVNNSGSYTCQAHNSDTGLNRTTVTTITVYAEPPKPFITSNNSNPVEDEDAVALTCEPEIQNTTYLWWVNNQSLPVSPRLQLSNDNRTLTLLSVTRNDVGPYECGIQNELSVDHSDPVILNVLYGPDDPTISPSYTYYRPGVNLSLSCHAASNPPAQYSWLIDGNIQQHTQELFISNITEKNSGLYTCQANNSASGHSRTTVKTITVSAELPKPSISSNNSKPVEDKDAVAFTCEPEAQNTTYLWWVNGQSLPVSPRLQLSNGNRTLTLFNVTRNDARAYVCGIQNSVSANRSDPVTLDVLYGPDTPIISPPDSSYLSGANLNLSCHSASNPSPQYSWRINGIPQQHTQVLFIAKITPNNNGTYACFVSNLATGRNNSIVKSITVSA", "assay": "ELISA on purified CEA", "format": "binding", "details": "FIG. 4", "method": "(§1) • Binding to purified antigen preparations. […] Binding of SC104 mab was assayed by ELISA as described above."}, "[3]": {"assay": "ELISA on tumour glycolipid extract", "format": "binding", "details": "FIG. 4", "method": "as §1"}, "C170 xenografts": {"tested_on": "C170 xenografts", "assay": "C170 xenograft therapeutic model", "format": "in vivo, nude mice", "details": "administered therapeutically, after C170 xenograft implantation; FIG. 27", "method": "Therapeutic model. The colorectal tumour cell line, C170 was maintained in serial passage in nude mice. For therapy the mice were sacrificed and the tumours excised. The tumour was finely minced and […] pieces were implanted, under anaesthetic, subcutaneously into 30 male mice which had been randomly allocated to 4 experimental groups.\nMice were explanted with 3 mm^3 pieces of C170 xenografts. […] On the same days mice were also injected intraperitonealy with 0.2 mg of SC104 mab. Control mice received either SC104 alone or control mouse IgG antibody with 5FU/leucovorin. Tumour size was measured by callipers and tumour cross sectional area calculated on days 12, 16, 19 and 23."}, "colorectal tumours": {"tested_on": "colorectal tumours", "assay": "Binding to colorectal tumours (summary statement)"}},
  "data": [
    {"molecule": "SC104: mouse IgG1 monoclonal antibody specific for a sialyltetraosyl carbohydrate, raised by immunisation with colorectal cancer cell lines (antibody, V domains shown) VH: DVQLQESGPDLVKPSQSLSLTCTVTGYSITSGYSWHWVRQFPGNKMEWMGHIHFSGRPTYNPSLSSRISITRDTSKNQFLLQLKFVTTEDTSTYFCARKGKGSDDGLNYWGQGISVTVSS VL: ENVLTQSPVIMSASPGEKVTMTCSASSSLSYIHWYQQKSRTSPKLWIYDTSNLASGVPGRFSGSGSGNSYSLTISSMEAEDVATYYCFQGSEYPLTFGGGTKLEMT", "values": [
      {"measurement": "Immunohistochemistry Colorectal Tumour", "setting": "[1]", "result": "3+"},
      {"measurement": "freshly disaggregated colorectal tumour cells bound strongly", "setting": "[2]; FIG. 3", "result": "> 80", "unit": "%"},
      {"measurement": "mean antigen density", "setting": "[2]; freshly disaggregated colorectal tumour cells", "result": "4×10^5 antigens per cell"},
      {"measurement": "staining of CEA by ELISA", "setting": "CEA", "result": "No significant staining"},
      {"measurement": "binding to methanol/chloroform tumour glycolipid extract by ELISA", "setting": "[3]", "result": "A similar result was obtained"},
      {"measurement": "inhibition of tumour growth", "setting": "C170 xenografts", "result": "neither 5FU nor SC104 alone significantly inhibited growth"},
      {"measurement": "colorectal tumours bound", "setting": "colorectal tumours", "result": 71, "unit": "%"}
    ]}
  ]
}
